By Kd is commonly meant the free concentration of one partner at which half of the binding sites on the other are occupied at equilibrium, for simple one-to-one binding. Lower therefore signals tighter binding. One may read the koff as a measure of how fast the partners let go of each other. Lower therefore signals a long-lived complex. One may read the kon as a measure of how fast the partners come together. Higher therefore signals fast association.

Residue numbers refer to the chain shown, from its start. Where no end group is shown, it is not given here.

The target in test [1] is T1, soluble human TREM2 (sTREM2) (human, UniProt Q9NZC2 19-157).
T1 construct: also called soluble TREM2; TREM2 ectodomain
T1 sequence: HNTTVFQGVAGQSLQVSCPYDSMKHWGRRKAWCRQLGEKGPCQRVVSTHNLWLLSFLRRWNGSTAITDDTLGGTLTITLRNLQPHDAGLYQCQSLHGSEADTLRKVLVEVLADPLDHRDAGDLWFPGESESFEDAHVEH
As to the kind of experiment: sandwich ELISA: test antibody coated as capture, sTREM2 from BMDM culture supernatant, biotinylated 3.17A9 as detection; normalised to 1.16B8. An excerpt:
For example, as shown in an Example 11 herein, the human TREM2 ELISA assay measured binding of antibodies to sTREM2 by coating onto plate wells the antibody to be tested as capture reagents and with biotinylated IgV-reactive monoclonal antibody 3.17A9 used as the detection reagent. Control antibody 1.16B8 was used as a positive control antibody to establish the standard for sTREM2 binding.
A human TREM2 ELISA assay was used to measure binding of more than forty antibodies to soluble TREM2 (sTREM2) as follows: test anti-hTREM2 antibodies were coated onto plate wells as capture reagents and a biotinylated IgV-reactive monoclonal antibody, 3.17A9, was used as the detection reagent. Antibody 1.16B8 was used as a control antibody to establish the standard for sTREM2 binding. Plates coated with test or control antibody were incubated with diluted culture supernatant from bone marrow-derived macrophage (BMDM) cultures from transgenic mice expressing hTREM2. sTREM2 is constitutively produced by the BMDM cultures expressing hTREM2 and shed into the culture supernatant. Measurements were recorded at 450 nm for detection and 570 nm for background. The 3.17A9/1.16B8 antibody pair was selected over reagents provided in the R&D Systems kit as the commercial reagents were not compatible with sTREM2 detection of some of the antibodies tested. Control antibody 1.16B8 light chain sequence is shown in SEQ ID NO: 170, and its heavy chain sequence is shown in SEQ ID NO: 171.

The target of test [2] is T2, human TREM2 on cells (human, UniProt Q9NZC2 19-230).
T2 sequence: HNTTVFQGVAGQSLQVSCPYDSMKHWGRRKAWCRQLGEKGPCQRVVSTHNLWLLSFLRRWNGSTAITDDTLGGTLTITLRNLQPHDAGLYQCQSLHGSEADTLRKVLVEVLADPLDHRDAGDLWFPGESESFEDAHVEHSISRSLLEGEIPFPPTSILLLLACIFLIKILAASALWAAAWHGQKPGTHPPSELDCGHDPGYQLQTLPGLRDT
As to the kind of experiment: cell-based or functional assay.

For test [3], the target named is T3, 159-175 (also: biotinylated (site not given here)).
T3 construct: member of the group m13
T3 peptide: ISRSLLEGEIPFPPTSI
Nature of the test: peptide ELISA with IgG, grey-scale heat map of OD650nm. On the technique in general: An ELISA detects its analyte on a solid surface through an enzyme-linked reagent.

Test [4] addresses T4, soluble monomeric human TREM2 (human, UniProt Q9NZC2 19-174, limits assumed).
T4 construct: Not the same as shed sTREM2; also called soluble monomeric TREM2
T4 sequence: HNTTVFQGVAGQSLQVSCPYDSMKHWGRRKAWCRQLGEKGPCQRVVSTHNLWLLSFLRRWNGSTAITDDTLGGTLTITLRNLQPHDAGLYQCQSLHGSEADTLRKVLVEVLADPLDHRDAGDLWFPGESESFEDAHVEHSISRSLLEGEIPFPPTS
Nature of the test: SPR (Biacore T200), 37 C; IgG on anti-CH1 chip, soluble monomeric TREM2. A general note: Surface plasmon resonance follows binding to a sensor surface in real time, without labels.

For test [5], the target named is T5, human TREM2-Fc (human, UniProt Q9NZC2 19-174).
T5 construct: also called hTREM2; not shown: Fc part (captured by anti-human IgG1 Fc or protein A)
T5 sequence: T4 sequence
Nature of the test: SPR (Biacore T200), 37 C; TREM2-Fc on protein A chip, Fab in solution. Here is the method: The humanized heavy chain variants were tested for affinity by combining the heavy chain variants with the 3.10C2-L1 light chain. These variants were expressed as Fab fragments, purified by protein A chromatography, and tested for affinity for TREM2-Fc coated on a protein A chip with a Biacore™ T200 apparatus.

Test [6] has as its target T5, human TREM2-Fc. Nature of the test: SPR (Biacore T200), 37 C; TREM2-Fc on anti-human IgG1 Fc chip, Fab in solution. Here is the method:
(§1) Briefly, clone variants were expressed as Fab fragments and purified by anti-CH1 affinity chromatography followed by size exclusion chromatography. TREM2-Fc antigens were immobilized on anti-human IgG1 Fc Biacore™ chips and soluble Para.09 variant and 3.10C2 clone Fab fragments were bound to immobilized TREM2 at 37° C.

In test [7] the target is T6, cynomolgus TREM2-Fc (cynomolgus monkey, UniProt A0A2K5UY34 49-204).
T6 construct: also called cyno TREM2; not shown: Fc part
T6 sequence: T4 sequence with A10E, W60R, L89F, F125V
The description is as above. Here is the method:
as §1

For test [8], the target named is T5, human TREM2-Fc. As to the kind of experiment: SPR (Biacore T200), 37 C; TREM2-Fc on protein A chip, soluble Fab. The procedure:
(§2) Affinity of h3.10C2.v1 (FIGS. 9A-B) for human and cynomolgus TREM2 was determined by SPR in a Biacore™ T200 apparatus in two formats, both at 37° C. In one format TREM2-Fc was immobilized on protein A chips and soluble anti-TREM2 Fab fragments used as ligands. In the second format, anti-TREM2 IgG was immobilized on anti-CH1 Biacore™ chips and used soluble monomeric TREM2 as ligand.

The target in test [9] is T6, cynomolgus TREM2-Fc. The test is described as above. Here is the method: as §2

B1: rat 3.27H7 mIgG2a LALAPG (antibody, V domains shown)
VH: EVQLVETGGSLVQPGGSLKLTCATSGFPFSNVWLHWIRRSPEKQLEWVAQIKARSDNYATYYAESVKGRFIVSRDDSKTTIYLQMNNLKEEDTAIYYCTGLDYWGQGVMVTVSS
VL: DVVLTQAPLSVSVTPGESASISCRSSRSLLTSKGITSLYWYLQKPGMSPHLLIYRMSNLASGIPDRFSGSGSETDFTLKISEVEPEDVGVYYCAQFLVYPYTFGAGTKLELK
notes: Mouse IgG2a LALAPG constant region
For B1, the binding result in test [1] is “no binding”.

B2: rat Para.09- LC 3.27H7 mIgG2a LALAPG (antibody, V domains shown)
VH: EVQLVETGGSLVQPGKSLRLTCATSGFPFSNVWLHWVRQSPEKHPEWVAHIKAKSDNYATYYAESVKGRFTISRDDSKSSVFLQMNSLKEEDTAIYYCTDILEYWGQGTLVTVSS
VL: DVVLTQAPLSVSVTPGESASISCRSSRSLLTSKGITSLYWYLQKPGMSPHLLIYRMSNLASGIPDRFSGSGSETDFTLKISEVEPEDVGVYYCAQFLVYPYTFGAGTKLELKR
notes: Mouse IgG2a LALAPG constant region; also called Rat para.09 mIgG2a LALAPG; Para.09. mIgG2a LALAPG
Take B2: the binding result in test [1] was “no binding”. Moreover, the “EC50, Jurkat NFAT luciferase reporter cells” value in test [2] is 0.04 µg/mL.

B3: Para.09 IgG with the 3.18E5 light chain (antibody, V domains shown)
VH: B2 VH
VL: DTVLTQAPLSVSVTPGESASISCRSNKSLLGIRDITSLYWYLQKPGKSPQLLIYRMSNLASGVPDRFSGSGSETDFTLKISEVETEDVGVYYCAQFLRYPYTFGPGTKLELK
Regarding B3, the binding result in [3] is “no binding”.

B4: Para.09 IgG with the 3.27H7 light chain (antibody, V domains shown)
VH: B2 VH
VL: B1 VL
notes: also called rat Para.09; Para.09-L27H7
In [4], B4 returned a Kd of 11 pM, a koff of 2.1e-05 s⁻¹ and an on-rate (kon) of 2e+06 M⁻¹ s⁻¹. Further, in [3], the binding result is recorded as “no binding”.

B5: Para.09 IgG with the 3.10C2 light chain (antibody, V domains shown)
VH: B2 VH
VL: B3 VL with V11L, N26S, I32V
Turning to B5, the binding result in [3] is “no binding”.

B6: Para.09 IgG with the 3.50G1 light chain (antibody, V domains shown)
VH: B2 VH
VL: B3 VL with Y41F, K112Q
As for B6, the binding result in [3] is “no binding”.

B7: rat 3.18E5 mIgG2a LALAPG (antibody, V domains shown)
VH: EVQLVETGGSLVQPGKSLKLTCATSGFPFSNVWMHWVRQSPEKQLEWIAHIKAKSDNYATYYAESVKGRFTISRDDSKTTIYLQMNSLKEADTAIYYCTGLDYWGQGVMVTVSS
VL: B3 VL
notes: as for B1
With B7, the binding result in [1] was “no binding”.

B8: 3.10C2 Fab (Fab, V domains shown)
VH: B7 VH with T80S, A91D
VL: B3 VL with V11L, N26S, I32V
notes: also called 3.10C2 (3.10C2); Rat3.10C2
With B8, the koff in test [5] was found to be 0.00019 s⁻¹; in test [6], 0.00017 s⁻¹; in test [7], 0.00015 s⁻¹; in test [8] it was 0.00018 s⁻¹; in test [9], 0.0002 s⁻¹. The kon in [5] was found to be 720000 M⁻¹ s⁻¹; in test [6], 850000 M⁻¹ s⁻¹; in test [7] it was 680000 M⁻¹ s⁻¹; in test [8], 910000 M⁻¹ s⁻¹; in test [9] it was 910000 M⁻¹ s⁻¹. Also, the Kd in test [6] was 200 pM; in test [7], 220 pM; in test [8] it was 190 pM; in test [9], 220 pM.

B9: rat 3.50G1 mIgG2a LALAPG (antibody, V domains shown)
VH: B7 VH with T80S, E90D, A91D
VL: B3 VL with Y41F, K112Q
notes: as for B1
Regarding B9, in test [1], the binding result is on record as “no binding”.

B10: rat 3.10C2 mIgG2a LALAPG (antibody, V domains shown)
VH: B7 VH with T80S, A91D
VL: B3 VL with V11L, N26S, I32V
notes: also called Rat 3.10C2 mIgG1a LALAPG
B10: in test [1], the binding result is recorded as “no binding”. The “EC50, Jurkat NFAT luciferase reporter cells” value in [2] is 0.28 µg/mL.

B11: 3.10C2-H2/3.10C2-L1 Fab (Fab, V domains shown)
VH: EVQLVESGGGLVQPGGSLKLSCATSGFPFSNVWMHWVRQASGKGLEWVGHIKAKSDNYATYYAESVKGRFTISRDDSKNTIYLQMNSLKTEDTAVYYCTGLDYWGQGTTVTVSS
VL: DTVLTQSPLSLPVTPGEPASISCRSSKSLLGVRDITSLYWYLQKPGQSPQLLIYRMSNLASGVPDRFSGSGSETDFTLKISRVEAEDVGVYYCAQFLRYPYTFGQGTKVEIK
With B11, in test [5], the koff worked out at 0.0059 s⁻¹ and the kon stood at 520000 M⁻¹ s⁻¹.

B12: 3.10C2-H7/3.10C2-L1 Fab (Fab, V domains shown)
VH: B11 VH with G49A, I81A
VL: B11 VL
In test [5], B12 had a koff of 0.018 s⁻¹ and a kon of 1.2e+06 M⁻¹ s⁻¹.

B13: 3.10C2-H4/3.10C2-L1 Fab (Fab, V domains shown)
VH: B11 VH with T24A, V48I
VL: B11 VL
In test [5], B13 displayed a koff of 0.024 s⁻¹ and a kon of 1.2e+06 M⁻¹ s⁻¹.

Values taken from patent US20220389097A1 (Genentech, published 2022).
